Test results reported in patent publication US20250320465A1 (FLAGSHIP PIONEERING INNOVATIONS V, published 2025).

Biological target: the molecule itself
Experiment: structure of the VLP (self-assembly)

B1: Ring10-ORF1delCterm Helix (Ring10 ORF1 with a deletion of the C-terminus amino acids 610-672) VLP from Expi293 cells (other)
chain: MPWWYRRRSYNPWRRRNWFRRPRKTIYRRYRRRRRWVRRKPFYKRKIKRLNIVEWQPKSIRKCRIKGMLCLFQTTEDRLSYNFDMYEESIIPEKLPGGGGFSIKNISLYALYQEHIHAHNIFTHTNTDRPLARYTGCSLKFYQSKDIDYVVTYSTSLPLRSSMGMYNSMQPSIHLMQQNKLIVPSKQTQKRRKPYIKKHISPPTQMKSQWYFQHNIANIPLLMIRTTALTLDNYYIGSRQLSTNVTIHTLNTTYIQNRDWGDRNKTYYCQTLGTQRYFLYGTHSTAQNINDIKLQELIPLTNTQDYVQGFDWTEKDKHNITTYKEFLTKGAGNPFHAEWITAQNPVIHTANSPTQIEQIYTASTTTFQNKKLTDLPTPGYIFITPTVSLRYNPYKDLAERNKCYFVRSKINAHGWDPEQHQELINSDLPQWLLLFGYPDYIKRTQNFALVDTNYILVDHCPYTNPEKTPFIPLSTSFIEGRSPYSPSDTHEPDEEDQNRWYPCYQYQQESINSICLSGPGTPKIPKGITAEAKVKYSFNFKWGGDLPPMSTITNPTDQPTYVVPNNFNETTSLQNPTTRPEHFLYSFDERRGQLTEKATKRLLKDWETK
notes: also called Ring10-ORF1 delCterm-Helix (Δ610-672) (7052)
**Q.** Does B1 bind?
**A.** binds
